The target in test [1] is Thermotoga maritima TsaB2D2 complex (Thermotoga maritima) (UniProt Q9WZX7). The test is described as follows: ITC. On the technique in general: Isothermal titration calorimetry measures the heat released or taken up as one component is titrated into another.
Test [2] has the same target. Nature of the test: ITC. This is another data set of the same source.
Test [3] has the same target. The test is described as follows: ITC. The source holds these as a separate data set.
Test [4] shares this target. Nature of the test: SEC. (In gel filtration, larger molecules generally elute earlier.)
Test [5] has the same target. The test is described as follows: SEC. The source holds these as a separate data set.

Read-outs that look alike come from different tables or passages of the source.

Thermotoga maritima TsaB2D2 complex (Thermotoga maritima), sequence (Q9WZX7 whole entry, chain 1 of 2): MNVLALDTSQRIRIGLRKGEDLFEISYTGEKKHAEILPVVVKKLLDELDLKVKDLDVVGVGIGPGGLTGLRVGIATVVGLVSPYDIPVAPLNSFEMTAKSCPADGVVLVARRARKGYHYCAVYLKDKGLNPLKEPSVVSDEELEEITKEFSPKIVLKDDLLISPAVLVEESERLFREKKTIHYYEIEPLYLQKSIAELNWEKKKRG
Thermotoga maritima TsaB2D2 complex (Thermotoga maritima), sequence (Q9WXZ2 whole entry, chain 2 of 2, further chain): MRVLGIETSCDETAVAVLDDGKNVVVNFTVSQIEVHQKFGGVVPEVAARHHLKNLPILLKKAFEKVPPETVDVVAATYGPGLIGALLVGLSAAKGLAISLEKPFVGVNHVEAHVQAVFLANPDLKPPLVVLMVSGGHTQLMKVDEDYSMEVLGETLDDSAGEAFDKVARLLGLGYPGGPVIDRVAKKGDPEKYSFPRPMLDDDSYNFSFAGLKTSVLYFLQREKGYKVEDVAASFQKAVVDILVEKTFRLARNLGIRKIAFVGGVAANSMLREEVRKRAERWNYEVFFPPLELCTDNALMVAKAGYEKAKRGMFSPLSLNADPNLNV

As to “Thermotoga maritima TsaE (natural protein)”, the results for the dissociation constant Kd in test [1], in test [2] and in test [3] were 1.1 µM, 1.3 µM and 0.34 µM, respectively. The dH in test [1] amounted to 1.54 kcal/mol; in test [2], 11.9 kcal/mol; in test [3], 7.44 kcal/mol. For the same substance, the stoichiometry N worked out at 2.16 in test [1], 2.11 in test [2] and 2.72 in test [3]. Further, the values for the stoichiometry N (TsaE per TsaB2D2) in test [4] and in test [5] were 1 and 2, respectively.

In test [2], “Thermotoga maritima TsaE E108A mutant (natural protein)” yielded a Kd of 1.1 µM and a dH of 9.3 kcal/mol. In test [3], this substance displayed a Kd of 2.4 µM, a dH of 11.9 kcal/mol and a stoichiometry N of 1.91.

In the case of “Thermotoga maritima TsaE T42A mutant (natural protein)”, in test [2], the equilibrium dissociation constant (Kd) came to 1.4 µM and the dH was determined as 8 kcal/mol. In test [3], this substance displayed an equilibrium dissociation constant (Kd) of 1.1 µM, a dH of 10.3 kcal/mol and a stoichiometry N of 2.

By Kd is commonly meant the constant that tells how readily two partners part at equilibrium. Low readings indicate a tighter complex, high ones a looser complex. Usually stoichiometry N stands for a count of units in the complex or per binding partner.

The values are drawn from paper PMC5814804.
